This note sets out measurements from PMC2946844.

Read-outs that look alike come from different tables or passages of the source.

What all share (experiment): SPR
Data set [1] deals with T1, 1xMBD-GFP (UniProt Q9Z2E2 1-75).
T1 sequence: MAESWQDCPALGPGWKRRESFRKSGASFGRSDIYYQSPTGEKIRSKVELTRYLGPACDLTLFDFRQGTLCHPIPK

In data set [2] the target is T1, 1xMBD-GFP. This is another data set of the same source.
The target in data set [3] is T1, 1xMBD-GFP. The source holds these as a separate data set.

B1: o_m_o/m_o_o (dsDNA)
DNA 1: TTTGCGGTCCGCTGCCCGACCC
DNA 2: GGGTCGGGCAGCGGACCGCAAA
modifications: strand 1 5mC10; strand 2 5mC17
Usually Kd stands for the equilibrium constant for the complex coming apart. A high value points to weaker binding. Take B1: in the data set with 1xMBD-GFP [1], the affinity, expressed as Kd, was 8000 ± 100 nM.

B2: o_o_o/m_o_o (dsDNA)
DNA 1: TTTGCGGTCCGCTGCCCGACCC
DNA 2: GGGTCGGGCAGCGGACCGCAAA
modifications: strand 2 5mC17
B2: in the data set with 1xMBD-GFP [1], the Kd stood at 48000 ± 2000 nM.

B3: m_o_o/m_o_o (dsDNA)
DNA 1: TTTGCGGTCCGCTGCCCGACCC
DNA 2: GGGTCGGGCAGCGGACCGCAAA
modifications: strand 1 5mC5; strand 2 5mC17
In the data set with 1xMBD-GFP [1], B3 showed a Kd of 4200 ± 40 nM.

B4: m_o_o*/m_o_o (dsDNA)
DNA 1: GTAGTTTGCGGTCCGCTGCCCGACC
DNA 2: GGGTCGGGCAGCGGACCGCAAA
modifications: strand 1 5mC9; strand 2 5mC17
With B4, the Kd with 1xMBD-GFP [1] was 870 ± 10 nM.

B5: o_o_m/m_m_m (dsDNA)
DNA 1: TTTGCGGTCCGCTGCCCGACCC
DNA 2: GGGTCGGGCAGCGGACCGCAAA
modifications: strand 1 5mC17; strand 2 5mC5,5mC12,5mC17
On to B5, for which the Kd with 1xMBD-GFP [2] is 189 ± 1 nM; in the data set with 1xMBD-GFP [3] it was 209 ± 2 nM.

B6: o_m_o_o/o_o_m_m (dsDNA)
DNA 1: GAAGTCAACAGGACGGACGCCGCGCAA
DNA 2: CTCTTTCTTTGCGCGGCGTCCGTCCTGTTGACTTCCTCT
modifications: strand 1 5mC18; strand 2 5mC12,5mC14
In the case of B6, the Kd with 1xMBD-GFP [1] was determined as 2400 ± 40 nM.

B7: o_o_o_m/o_o_m_m (dsDNA)
DNA 1: GAAGTCAACAGGACGGACGCCGCGCAA
DNA 2: CTCTTTCTTTGCGCGGCGTCCGTCCTGTTGACTTCCTCT
modifications: strand 1 5mC23; strand 2 5mC12,5mC14
B7: in the data set with 1xMBD-GFP [1], the affinity, expressed as Kd, was 281 ± 7 nM.

B8: o_o_o_o/m_m_o_o (dsDNA)
DNA 1: GAAGTCAACAGGACGGACGCCGCGCAA
DNA 2: CTCTTTCTTTGCGCGGCGTCCGTCCTGTTGACTTCCTCT
modifications: strand 2 5mC17,5mC21
The molecule B8 returned a Kd in the data set with 1xMBD-GFP [1] of 7500 ± 200 nM.

B9: o_o_o_m/m_m_o_o (dsDNA)
DNA 1: GAAGTCAACAGGACGGACGCCGCGCAA
DNA 2: CTCTTTCTTTGCGCGGCGTCCGTCCTGTTGACTTCCTCT
modifications: strand 1 5mC23; strand 2 5mC17,5mC21
Turning to B9, the Kd in the data set with 1xMBD-GFP [1] stood at 3940 ± 60 nM.

B10: m_o_o_o/m_m_o_o (dsDNA)
DNA 1: GAAGTCAACAGGACGGACGCCGCGCAA
DNA 2: CTCTTTCTTTGCGCGGCGTCCGTCCTGTTGACTTCCTCT
modifications: strand 1 5mC14; strand 2 5mC17,5mC21
In the data set with 1xMBD-GFP [1], B10 displayed a Kd of 561 ± 6 nM.

B11: o_o_m_o/m_m_o_o (dsDNA)
DNA 1: GAAGTCAACAGGACGGACGCCGCGCAA
DNA 2: CTCTTTCTTTGCGCGGCGTCCGTCCTGTTGACTTCCTCT
modifications: strand 1 5mC21; strand 2 5mC17,5mC21
With B11, in the data set with 1xMBD-GFP [1], binding was put at a Kd of 4970 ± 70 nM.

B12: o_m_o_o/m_m_o_o (dsDNA)
DNA 1: GAAGTCAACAGGACGGACGCCGCGCAA
DNA 2: CTCTTTCTTTGCGCGGCGTCCGTCCTGTTGACTTCCTCT
modifications: strand 1 5mC18; strand 2 5mC17,5mC21
In the case of B12, in the data set with 1xMBD-GFP [1], the Kd turned out to be 377 ± 7 nM.

B13: o_o_m_o/o_o_m_m (dsDNA)
DNA 1: GAAGTCAACAGGACGGACGCCGCGCAA
DNA 2: CTCTTTCTTTGCGCGGCGTCCGTCCTGTTGACTTCCTCT
modifications: strand 1 5mC21; strand 2 5mC12,5mC14
In turn, B13 showed a Kd with 1xMBD-GFP [1] of 156 ± 2 nM.
